Measurements as given in PMC10397247.
Each block holds one binder with its values, some of them ahead of it.

What was measured:
P6SC2 [1] = molecular target: T1, P6SC2; test: two-hybrid library CCmax; details: mean of both orientations;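 note: natural log of median RNA to DNA barcode read ratio; higher means stronger binding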
T1 chain: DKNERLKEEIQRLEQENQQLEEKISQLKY

P6SC1 [2] = molecular target: T2, P6SC1; test: two-hybrid library CCmax; details: mean of both orientations;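 note: natural log of median RNA to DNA barcode read ratio; higher means stronger binding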
T2 chain: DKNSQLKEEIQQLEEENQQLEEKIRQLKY

P6SC2 [3] = molecular target: T1, P6SC2; test: two-hybrid library CCNG1;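 note: natural log of median RNA to DNA barcode read ratio; higher means stronger binding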
P6SC1 [4] = molecular target: T2, P6SC1; test: two-hybrid library CCNG1;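 note: natural log of median RNA to DNA barcode read ratio; higher means stronger binding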
P4A-bH = molecular target: T3, P4A-bH; test: two-hybrid library CCNG1;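 note: natural log of median RNA to DNA barcode read ratio; higher means stronger binding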
T3 chain: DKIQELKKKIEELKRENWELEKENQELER

P6A-bH = molecular target: T4, P6A-bH; test: two-hybrid library CCNG1;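 note: natural log of median RNA to DNA barcode read ratio; higher means stronger binding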
T4 chain: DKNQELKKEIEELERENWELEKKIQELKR

P1A-bH = molecular target: T5, P1A-bH; test: two-hybrid library CCNG1
T5 chain: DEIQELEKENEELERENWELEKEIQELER

P11A-bH = molecular target: T6, P11A-bH; test: two-hybrid library CCNG1
T6 chain: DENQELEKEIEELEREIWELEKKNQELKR

P8A-bH = molecular target: T7, P8A-bH; test: two-hybrid library CCNG1
T7 chain: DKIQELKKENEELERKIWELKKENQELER

P9A-bH = molecular target: T8, P9A-bH; test: two-hybrid library CCNG1
T8 chain: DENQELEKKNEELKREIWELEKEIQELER

P7A-bH = molecular target: T9, P7A-bH; test: two-hybrid library CCNG1
T9 chain: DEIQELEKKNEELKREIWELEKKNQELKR

P2A-bH = molecular target: T10, P2A-bH; test: two-hybrid library CCNG1
T10 chain: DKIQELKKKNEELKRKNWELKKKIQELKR

P5A-bH = molecular target: T11, P5A-bH; test: two-hybrid library CCNG1
T11 chain: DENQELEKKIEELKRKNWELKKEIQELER

P3A-bH = molecular target: T12, P3A-bH; test: two-hybrid library CCNG1
T12 chain: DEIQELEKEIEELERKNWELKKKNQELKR

P12A-bH = molecular target: T13, P12A-bH; test: two-hybrid library CCNG1
T13 chain: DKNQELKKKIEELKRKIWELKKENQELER

4H342-bH = molecular target: T14, 4H342-bH; test: two-hybrid library CCNG1
T14 chain: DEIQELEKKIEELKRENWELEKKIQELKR

4H496-bH = molecular target: T15, 4H496-bH; test: two-hybrid library CCNG1
T15 chain: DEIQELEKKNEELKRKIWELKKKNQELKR

4H3632-bH = molecular target: T16, 4H3632-bH; test: two-hybrid library CCNG1
T16 chain: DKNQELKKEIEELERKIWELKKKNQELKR

4H2691-bH = molecular target: T17, 4H2691-bH; test: two-hybrid library CCNG1
T17 chain: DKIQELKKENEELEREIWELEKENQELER

4H2619-bH = molecular target: T18, 4H2619-bH; test: two-hybrid library CCNG1
T18 chain: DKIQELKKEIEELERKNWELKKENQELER

4H145-bH = molecular target: T19, 4H145-bH; test: two-hybrid library CCNG1; details: mean of both orientations
T19 chain: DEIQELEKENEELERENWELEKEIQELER

4H3070-bH = molecular target: T20, 4H3070-bH; test: two-hybrid library CCNG1; details: mean of both orientations
T20 chain: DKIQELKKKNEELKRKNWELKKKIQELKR

Binder: DENSQLEEKISQLKQKNSRLKEEIARLEY [P5SC1]
- interaction score (P6SC2 [1]): 0.454
- interaction score (P6SC1 [2]): 1.63
- interaction score (P6SC2 [3]): -0.371
- interaction score (P6SC1 [4]): 0.785

Binder: DEIQELEKENEELERENWELEKEIQELER [4H145-bH]
- interaction score (4H342-bH): -0.409
- interaction score (4H496-bH): -0.316
- interaction score (4H3632-bH): -1.44
- interaction score (4H2691-bH): -0.291
- interaction score (4H2619-bH): -0.128
- interaction score (4H145-bH): -0.793
- interaction score (4H3070-bH): 1.19

More lines, now with the values ahead:

- interaction score (P6SC2 [1]): 0.811
- interaction score (P6SC1 [2]): 0.953
- interaction score (P6SC2 [3]): 0.391
- interaction score (P6SC1 [4]): 0.383
Binder: DENARLEEKIRQLKQKNSQLKEEIQQLEY [P5SC2]

- interaction score (P4A-bH): 1.83
- interaction score (P6A-bH): 0.692
- interaction score (P1A-bH): 1.5
- interaction score (P11A-bH): -2.55
- interaction score (P8A-bH): 0.165
- interaction score (P9A-bH): 1.09
- interaction score (P7A-bH): 0.921
- interaction score (P2A-bH): 0.45
- interaction score (P5A-bH): 0.555
- interaction score (P3A-bH): 0.615
- interaction score (P12A-bH): 1.5
Binder: DENQELEKEIEELEREIWELEKKNQELKR [P11A-bH]
